Source: the supplement of paper PMC9112550, “Optimization of the antimicrobial peptide Bac7 by deep mutational scanning” (BMC Biology, 2022)

System: Escherichia coli TOP10
Test: shrunken log2 fold change of peptide-encoding DNA abundance (4.5 h post-induction vs induction); higher = less antimicrobial activity (less host growth inhibition)
Conditions: time post-induction: 4.5 h; library: site-saturation at positions 5, 18, 19, 20
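Also: peptides expressed intracellularly from a pBAD plasmid library in pooled LB shake-flask culture, induced with 0.3% L-arabinose, DNA abundance read by NGS, three biological replicates, DESeq2 with apeglm shrinkage.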

| Sequence | shrunken log2 fold change |
| --- | --- |
| RRIRKRPPRLPRPRPRPKNQPRP | 0.419 |
| RRIRDRPPRLPRPRPRPKIHPRP | -0.214 |
| RRIRIRPPRLPRPRPRPYWEPRP | -0.152 |
| RRIRRRPPRLPRPRPRPPYKPRP | 0.114 |
| RRIRGRPPRLPRPRPRPPWGPRP | 0.651 |
| RRIRPRPPRLPRPRPRPGHKPRP | -0.287 |
| RRIRIRPPRLPRPRPRPIFIPRP | -0.317 |
| RRIRDRPPRLPRPRPRPRISPRP | 0.0345 |
| RRIRTRPPRLPRPRPRPCPVPRP | -0.175 |
| RRIRQRPPRLPRPRPRPETIPRP | -0.0395 |
| RRIRERPPRLPRPRPRPGTKPRP | -0.0636 |
| RRIRTRPPRLPRPRPRPFERPRP | -0.0347 |
| RRIRCRPPRLPRPRPRPTMKPRP | -0.246 |
| RRIRDRPPRLPRPRPRPHMNPRP | 0.001 |
| RRIRMRPPRLPRPRPRPFIKPRP | -0.432 |
| RRIRDRPPRLPRPRPRPQHLPRP | -0.444 |
| RRIRCRPPRLPRPRPRPPVTPRP | 0.0706 |
| RRIRARPPRLPRPRPRPKWYPRP | 0.056 |
| RRIRYRPPRLPRPRPRPWDQPRP | 0.0123 |
| RRIRERPPRLPRPRPRPPTAPRP | 0.0872 |
| RRIRPRPPRLPRPRPRPNLPPRP | -0.142 |
| RRIRIRPPRLPRPRPRPPQYPRP | -0.226 |
| RRIRGRPPRLPRPRPRPTYMPRP | 0.0228 |

| Sequence | shrunken log2 fold change |
| --- | --- |
| RRIRWRPPRLPRPRPRPDDSPRP | -0.183 |
| RRIRKRPPRLPRPRPRPWRFPRP | 0.234 |
| RRIRIRPPRLPRPRPRPNMPPRP | -0.611 |
| RRIRTRPPRLPRPRPRPLLYPRP | -0.444 |
| RRIRDRPPRLPRPRPRPGHPPRP | 0.813 |
| RRIRERPPRLPRPRPRPDCAPRP | 0.115 |
| RRIRMRPPRLPRPRPRPLKTPRP | 0.642 |
| RRIRTRPPRLPRPRPRPIRFPRP | -0.0183 |
| RRIRPRPPRLPRPRPRPYAFPRP | -0.264 |
| RRIRIRPPRLPRPRPRPFGHPRP | -0.272 |
| RRIRFRPPRLPRPRPRPFYMPRP | -0.317 |
| RRIRKRPPRLPRPRPRPVGLPRP | 0.174 |
| RRIRVRPPRLPRPRPRPCIHPRP | 0.0261 |
| RRIRIRPPRLPRPRPRPQPHPRP | -0.00842 |
| RRIRSRPPRLPRPRPRPQSMPRP | -0.384 |
| RRIRTRPPRLPRPRPRPMNHPRP | -0.0849 |
| RRIRMRPPRLPRPRPRPEANPRP | 3.83 |
| RRIRLRPPRLPRPRPRPMLMPRP | -0.177 |
| RRIRVRPPRLPRPRPRPFHEPRP | 0.324 |
| RRIRWRPPRLPRPRPRPKVCPRP | -0.0693 |
| RRIRKRPPRLPRPRPRPQNNPRP | -0.417 |
| RRIRNRPPRLPRPRPRPRGTPRP | 0.224 |
| RRIRDRPPRLPRPRPRPIRLPRP | 0.015 |

| Sequence | shrunken log2 fold change |
| --- | --- |
| RRIRTRPPRLPRPRPRPRCYPRP | -0.429 |
| RRIRWRPPRLPRPRPRPTYSPRP | -0.163 |
| RRIRDRPPRLPRPRPRPKIPPRP | -0.355 |
| RRIRFRPPRLPRPRPRPSMDPRP | -0.819 |
| RRIRPRPPRLPRPRPRPTTGPRP | 0.12 |
| RRIRVRPPRLPRPRPRPMFHPRP | -0.22 |
| RRIRVRPPRLPRPRPRPMPVPRP | 0.00602 |
| RRIRCRPPRLPRPRPRPYLQPRP | -0.144 |
| RRIRGRPPRLPRPRPRPGNQPRP | -0.0828 |
| RRIRMRPPRLPRPRPRPVPCPRP | 0.291 |
| RRIRKRPPRLPRPRPRPCLQPRP | 0.194 |
| RRIRVRPPRLPRPRPRPYAYPRP | 0.0587 |
| RRIRIRPPRLPRPRPRPICLPRP | -0.197 |
| RRIRMRPPRLPRPRPRPSVAPRP | 0.44 |
| RRIRQRPPRLPRPRPRPANGPRP | 0.184 |
| RRIRERPPRLPRPRPRPYCEPRP | -0.0402 |
| RRIRPRPPRLPRPRPRPMCPPRP | -0.267 |
| RRIRCRPPRLPRPRPRPGMDPRP | -0.0572 |
| RRIRDRPPRLPRPRPRPGCNPRP | 0.0955 |
| RRIRRRPPRLPRPRPRPKSQPRP | 0.104 |
| RRIRERPPRLPRPRPRPEMTPRP | -0.0236 |
| RRIRFRPPRLPRPRPRPNPWPRP | -0.0447 |
| RRIRNRPPRLPRPRPRPKPRPRP | 0.83 |

| Sequence | shrunken log2 fold change |
| --- | --- |
| RRIRCRPPRLPRPRPRPTHAPRP | 0.975 |
| RRIRVRPPRLPRPRPRPIFRPRP | 0.0423 |
| RRIRERPPRLPRPRPRPRLCPRP | -0.426 |
| RRIRCRPPRLPRPRPRPSGVPRP | -0.311 |
| RRIRYRPPRLPRPRPRPPPFPRP | 0.328 |
| RRIRLRPPRLPRPRPRPWVSPRP | 0.442 |
| RRIRYRPPRLPRPRPRPMPQPRP | -0.318 |
| RRIRRRPPRLPRPRPRPNCVPRP | 0.245 |
| RRIRPRPPRLPRPRPRPRLEPRP | 0.197 |
| RRIRYRPPRLPRPRPRPYPPPRP | -0.673 |
| RRIRNRPPRLPRPRPRPENPPRP | 0.0192 |
| RRIRSRPPRLPRPRPRPMKGPRP | -0.311 |
| RRIRKRPPRLPRPRPRPPYQPRP | 0.0608 |
| RRIRTRPPRLPRPRPRPVHGPRP | -0.0733 |
| RRIRLRPPRLPRPRPRPWEKPRP | 0.0916 |
| RRIRGRPPRLPRPRPRPKAHPRP | 0.625 |
| RRIRPRPPRLPRPRPRPRPEPRP | 0.373 |
| RRIRSRPPRLPRPRPRPAHSPRP | -0.332 |
| RRIRCRPPRLPRPRPRPKAVPRP | 0.564 |
| RRIRERPPRLPRPRPRPHIYPRP | -0.226 |
| RRIRCRPPRLPRPRPRPLLYPRP | -0.572 |
| RRIRDRPPRLPRPRPRPRCFPRP | 1.66 |
